# Experimental data from patent US12480163.
# Target: p53 (tumor protein 53, TP53)
protein,measurement,value
Wip1 (wild-type p53-induced phosphatase 1; encoded by the PPM1D gene) (protein) MAGLYSLGVSVFSDQGGRKYMEDVTQIVVEPEPTAEEKPSPRRSLSQPLPPRPSPAALPGGEVSGKGPAVAAREARDPLPDAGASPAPSRCCRRRSSVAFFAVCDGHGGREAAQFAREHLWGFIKKQKGFTSSEPAKVCAAIRKGFLACHLAMWKKLAEWPKTMTGLPSTSGTTASVVIIRGMKMYVAHVGDSGVVLGIQDDPKDDFVRAVEVTQDHKPELPKERERIEGLGGSVMNKSGVNRVVWKRPRLTHNGPVRRSTVIDQIPFLAVARALGDLWSYDFFSGEFVVSPEPDTSVHTLDPQKHKYIILGSDGLWNMIPPQDAISMCQDQEEKKYLMGEHGQSCAKMLVNRALGRWRQRMLRADNTSAIVICISPEVDNQGNFTNEDELYLNLTDSPSYNSQETCVMTPSPCSTPPVKSLEEDPWPRVNSKDHIPALVRSNAFSENFLEVSAEIARENVQGVVIPSKDPEPLEENCAKALTLRIHDSLNNSLPIGLVPTNSTNTVMDQKNLKMSTPGQMKAQEIERTPPTNFKRTLEESNSGPLMKKHRRNGLSRSSGAQPASLPTTSQRKNSVKLTMRRRLRGQKKIGNPLLHQHRKTVCVC,phospho-Serine15-p53 protein levels (Western blot) after combined ATSP-7041 and GSK2830371 treatment,the combination of ATSP-7041 and GSK2830371 increased the phosphorylation of p53 at Serine 15 in two Ewing sarcoma cell lines
same,phosphorylation of Serine 15 of p53 (Western blot) after GSK2830371 treatment,GSK2830371 reduced the protein levels of Wip1 in a time-dependent manner and triggered a surge in phosphorylation of Serine 15 of p53
